# B1: IRF6 motif trimer EMSA probe (dsDNA)
# DNA 1: TGGTTTCGGTTGACTTGGTTTCGGTTGACTTGGTTTCGGTTGA
# DNA 2: TCAACCGAAACCAAGTCAACCGAAACCAAGTCAACCGAAACCA
# Molecular target: IRF6 (human, UniProt O14896 1-467)
# Experiment: EMSA
binder,measurement,value
B1,binding result,binds

# Source: publication doi:10.1101/2022.11.28.518222
